According to patent US20140056890A1 (ONCEMED PHARMACEUTICALS, published 2014):

Target: T1, pYAP (human, UniProt P46937, phosphorylated; site not stated in Example 13 (detected with phospho-YAP1 antibody #4911, Cell Signaling Technology; the anti-pYAP antibody of Examples 5 and 7 is to Ser127))
T1 construct: full length, endogenous; also called phospho-YAP; phospho-YAP1
Experiment: co-immunoprecipitation: anti-FLAG IP from lysate of transiently transfected HEK-293T cells, Western blot with anti-phospho-YAP1
Protocol: To validate these protein complexes, immunoprecipitates (see method described above) were prepared from HEK-293T cells transiently transfected with FLAG-tagged full-length CADM1, CADM3, PVR, PVRL1, and PVRL3, with CADM3-CD4TM-GFP and LGR5-CD4TM-GFP constructs as internal negative controls. Total cell lysates and the immunoprecipitate eluates were run on 4-12% Tris-Glycine Midi Gels (Life Technologies/Invitrogen, Grand Island, N.Y.) and transferred by iBlot onto PVDF membranes (Life Technologies/Invitrogen).

T1 sequence (P46937 whole entry): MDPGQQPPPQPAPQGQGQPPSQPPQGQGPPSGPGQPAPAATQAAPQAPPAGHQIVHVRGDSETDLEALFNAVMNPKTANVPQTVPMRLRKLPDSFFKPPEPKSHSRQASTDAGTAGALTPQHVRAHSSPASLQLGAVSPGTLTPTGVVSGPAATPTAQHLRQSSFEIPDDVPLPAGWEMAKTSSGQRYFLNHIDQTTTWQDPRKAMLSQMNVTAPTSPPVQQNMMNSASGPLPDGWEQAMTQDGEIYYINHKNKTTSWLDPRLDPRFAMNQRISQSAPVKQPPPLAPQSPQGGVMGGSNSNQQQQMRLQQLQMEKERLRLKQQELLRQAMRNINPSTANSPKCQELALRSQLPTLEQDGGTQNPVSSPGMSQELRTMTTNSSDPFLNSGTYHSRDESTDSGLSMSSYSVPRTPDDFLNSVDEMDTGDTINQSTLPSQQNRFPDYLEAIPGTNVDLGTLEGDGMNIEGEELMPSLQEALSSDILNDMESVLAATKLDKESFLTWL

B1: FLAG-tagged full-length PVR (receptor)
chain: WPPPGTGDVVVQAPTQVPGFLGDSVTLPCYLQVPNMEVTHVSQLTWARHGESGSMAVFHQTQGPSYSESKRLEFVAARLGAELRNASLRMFGLRVEDEGNYTCLFVTFPQGSRSVDIWLRVLAKPQNTAEVQKVQLTGEPVPMARCVSTGGRPPAQITWHSDLGGMPNTSQVPGFLSGTVTVTSLWILVPSSQVDGKNVTCKVEHESFEKPQLLTVNLTVYYPPEVSISGYDNNWYLGQNEATLTCDARSNPEPTGYNWSTTMGPLPPFAVAQGAQLLIRPVDKPINTTLICNVTNALGARQAELTVQVKEGPPSEHSGMSRNAIIFLVLGILVFLILLGIGIYFYWSKCSREVLWHCHLCPSSTEHASASANGHVSYSAVSRENSSSQDPQTEGTR
notes: Bait, transiently expressed in HEK-293T cells and immunoprecipitated from lysates with anti-FLAG agarose; also called Poliovirus receptor; NECL-5
B1: no binding.
